Source: PMC3800195 (Molecular microbiology, 2010)

Target: the molecule itself
Assay: crystal structure

B1: IsdI (enzyme, Staphylococcus aureus)
chain: MFMAENRLQLQKGSAEETIERFYNRQGIETIEGFQQMFVTKTLNTEDTDEVKILTIWESEDSFNNWLNSDVFKEAHKNVRLKSDDDGQQSPILSNKVFKYDIGYHYQK
  binding result: binds
